Target: the molecule itself
Experiment: crystal structure; PHA-E (9 mg/ml, 20 mM Tris-HCl pH 8.0, 100 mM NaCl) with 0.6 mM bisected glycan 2; crystals from 0.1 M sodium acetate pH 4.5, 25% PEG3,350, 20 °C; 3.0 Å

B1: phytohemagglutinin from Phaseolus vulgaris (PHA-E) (natural protein, UniProt P05088 22-275, looked up)
chain: ASQTSFSFQRFNETNLILQRDATVSSKGQLRLTNVNDNGEPTLSSLGRAFYSAPIQIWDNTTGAVAASPTSFTFNIDVPNNSGPADGLAFVLLPVGSQPKDKGGLLGLFNNYKYDSNAHTVAVEFDTLYNVHWDPKPRHIGIDVNSIKSIKTTTWDFVKGENAEVLITYDSSTKLLVASLVYPSLKTSFIVSDTVDLKSVLPEWVIVGFTATTGITKGNVETNDILSWSFASKLSDGTTSEALNLANFALNQIL
notes: erythroagglutinating phytohemagglutinin (PHA-E), legume lectin from Phaseolus vulgaris; 120 kDa as tetramer; Crystallised with bisected glycan 2; eight subunits in the asymmetric unit; also called E4-PHA; PHA-E lectin; source: purified from Phaseolus vulgaris; bought: J-Oil Mills
B1 was tested, and the “stoichiometry N” value was 4.

Reference: PMC4789653, “Atomic visualization of a flipped-back conformation of bisected glycans bound to specific lectins” (Scientific Reports, 2016)
